Data as given in a protein production outcome set (Wang et al. 2014).

Assay: label from the status in PepcDB records

MGPMRTLTVAIDWILIILFVISIILLIYALVKKNKKMAKYAGIAAAIIFILLFIAMRFALTVKPGQ
protein production: failed

MIRLPRAGTVLAVRGTAARSRRRLSTMARMPDTNTTDLWERRTQGPLLALAVLFAVAYALPVVMPDAPEQLLFACHVANWVVWAAFAIDYAVRLWLSEDRLRFVRSHPLALLAVLLPLLRPLRLLKLVSMLLLAGQRARMASQVRVTTYVAGSCLGLLVFGALAVLEVERGRPGASIQTLGDALWWAFTTMTTVGYGDMAPTTGLGRLLAIGLMLSGIALLGVVTANIAAWFISRFERDDAEERRQTAAIEALTEEVRALRAQVATLRAPQGAPSELNVLPAPTREHD
protein production: failed

MTAIRFDHVDVIFGTHTKEALKLLDQGLGRAEILKRTGQVLGVEDACLDVNRGEICVLMGLSGSGKSSLLRCINGLNKVSRGKLLIEHEGSQVDIANCSPATLKAMRTKRIAMVFQKFALMPWLTVAENVGFGLEMQGRPAAERKKLIDEKLELVGLSQWRDKRPDSLSGGMQQRVGLARALAMDGDILLMDEPFSALDPLIRQQLQDELLVLQRQLHKTIVFVSHDLDEALKIGTRIAIMKDGRIIQHGKPEEIVLSPADDYVRTFVAHTNPLNVLCGQSLMRGLDQCIRQNDEICFDQGRDCWIGLSEGDVLKGARQGSNVIDLQRWRQGDPVEKLRREPTLVDVSIRMRDALQIRYQTGHKLVLQEQDRVVGVLGDSELYHALLGKN
protein production: failed

MATRTQARGAVVELLYAFESGNEEIKKIASSMLEEKKIKNNQLAFALSLFNGVLEKINEIDALIEPHLKDWDFKRLGSMEKAILRLGAYEIGFTPTQNPIIINECIELGKLYAEPNTPKFLNAILDSLSKKLTQKPLN
protein production: failed

QIRMIAAIAHMGGHDLKDDRVKAMVYACLTGNAAKDILKDIGIVVGRKLTENAIKSISGKTITKINQAVGFRLLTKFGEKG
protein production: failed

MSSKMVKSSEIVGKLNLRAHQEGGFFAETFRDSSVFLSTSQLPPTFKVDRAVSTSIYFLLPSGSVSRLHRIPMAETWHFYLGEPLTVVELYDDGKLKFTCLGPDLFEGDQKPQYTVPPNVWFGSFPTKDVHFSQDGALLKAEARDSENHFSLVGCTCAPAFQFEDFELAKRSDLLSRFPQHESLITMLSYPE
protein production: failed

MRTIIALETHDVRFPTSRELDGSDAMNPDPDYSAAYVVLRTDGAEDLAGYGLVFTIGRGNDVQTAAVAALAEHVVGLSVDKVIADLGAFARRLTNDSQLRWLGPEKGVMHMAIGAVINAAWDLAARAANKPLWRFIAELTPEQLVDTIDFRYLSDALTRDEALAILRDAQPQRAARTATLIEQGYPAYTTSPGWLGYSDEKLVRLAKEAVADGFRTIKLKVGANVQDDIRRCRLARAAIGPDIAMAVDANQRWDVGPAIDWMRQLAEFDIAWIEEPTSPDDVLGHAAIRQGITPVPVSTGEHTQNRVVFKQLLQAGAVDLIQIDAARVGGVNENLAILLLAAKFGVRVFPHAGGVGLCELVQHLAMADFVAITGKMEDRAIEFVDHLHQHFLDPVRIQHGRYLAPEVPGFSAEMHPASIAEFSYPDGRFWVEDLAA
protein production: not failed

MLEIIQKTLTDNAIIGAIFSSIAIIFLGFYIRKRNILTGAASKILTKVVLTVAIPALAFTSFMKDINQKELHEGINILIWGFVIYILLIVLTKFIFARVKGDKQDVFRVLTIFGSTTFFGVPIVKAVYGSVGAMYSSIFNIAYRVFLYSYGYIKMSGVKMDKENLKKNLKEMLLNPVIIATFLGLFIWLFQGMLPQVQIGDKSYAFLRIDQTLPWLYKPLTYLDKLCSPLAWLAIGITLAEVPFKQAVGQKEPWVYSLIKIILVPVINLGLLVVLNKTGILPVSFEGMATTVIMLATPTATVAAAYAISFDKEALLTSNCSLLSTVVAVVAMPFWIVILQIIKNIGLFA
protein production: failed

MAGKKVVITIGRQYGSGGADTGRRLAEELGFGFYDKNILRMNSDESGIKESYFHLADEKAGNKLLYKIISSLTPEKGAPSFGSDLISADNLFRFQSEVIRKLAAEESCVIIGRCANYVLDGMEGLLRVYLYADIEVREARIREKDLYDEKEVLKNIKRIDRERRDYHRYYTGRDWQELDNYDLVINTTHIGVDGAVAVIKNYLTVMGYDLEKDFH
protein production: not failed

EKGLEIAQERKARDEGWGDSIATMEMILKNAQGESSTRLMRLKSLEVEGDGDKGLTIFDQPRDVTGTAFLNHSHTIGADDQWLYLPALKRVKRISSRNKSGPFMGSEFAYEDLSSFEIEKYRFNHLKDEKFNGQDVFVLEQIPTDKNSGYTKQVVWLDKAHYRPLKVEFYDRKGALLKTLTFANYKQYLDKYWRAHTMAMTNHQTGKSTELNTSDLRFQTGLEENDFNKNVLKR
protein production: not failed

MTLATRTVILPGGLQATLVHQPQADRAAALARVAAGSHHEPSRFPGLAHLLEHLLFYGGERYQDDDRLMGWVQRQGGSVNATTLARHSAFFFEVAADALADGVARLQEMLQAPLLLREDIQREVAVIDAEYRLIQQHEPSRREAAVRHAASAPAAFRRFQVGSADALAGDLAALQAALGDFHRTHYVARRMQLWLQGPQSLEALGELAARFAAGLAAGEPPPPAPPLRLGEFTALQLAVSSQPALWRCPLIALSDNVTLLREFLLDEAPGSLMASLRQRRLAGDVALNWLYQDRYLGWLALVFASDRPEEVDRQITHWLQALQQTTPEQQQHYYQLSRRRFQALSPLDQLRQRAFGFAPGAPPAGFADFCAALQAAPSVSLACQTVSPGEPVATQGFSLPLSRWRRRPESDPALAFAFYPQAAGDLVAKCPEKAAPLLHLPLPEEPPRLLLRPPFYCSPDQAEGLARGEQLRPLLAALRHAGGHGEWHLFDGSWQLTLQLPEPGRRPEAILQAILRQLALPVASLTPPPESIAIRHLMAQLPERLGTSGHQKGWLAALAGGSAEDAQWVARQLSLITAPVNPPMPAPAPCRRGVERLVYPGGDTALLVFIPLPDGASLAALRLLAQHCEPLFFQRLRVEQQIGYVVSCRYQRVADRDGLLMALQSPDRRAGELLRCGKDFLRQLAPMDEATFRPLQQRLAAQNRASRPPEARALSALRQEYGLPELTPQAVDALRVAEVADLAREMTRRRRRWQVLFTTGD
protein production: failed

MKIACVVLTYNRLSLLKRCIDSIRNQTYQEFDIYVIDNASTDGTAHWLSLQNDLTVISIHENKGPANGFYTCLQVPYDDGYDWIWMMDDDGVADKGQLEELLNKTVKNNLYFTNALVCNIDNPEKIAFGAKKTIDTQREELIKGNINPFNGTFIHRRVIEKNGNIMREMYMYGCETEYQLRAIKNGFQVATVTSAIHYHPSPKVSICHLIPYIKYCSIIDYPIDTLFYIRNKAYINYTYLGFKRSLFMITSYSLYYLFRLKIRKVLLFWKYYREGCKGVVGNKKQLEHHHHHH
protein production: not failed

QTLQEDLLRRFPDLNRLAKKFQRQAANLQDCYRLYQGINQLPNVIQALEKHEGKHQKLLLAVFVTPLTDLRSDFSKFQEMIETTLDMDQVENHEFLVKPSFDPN
protein production: failed

MKILILGGTRFLGRAFVDEALQRGHEVTLFNRGTNKEVFPEVEQLIGDRNNDVSSLKNRKWDVVIDTCGFSPHHIRNVGEVLNDNIEHYVFISSLSVYKDWILHDIKEDYILQPEPTDDQIKAVENGEVSPYEYYGALKVLCEKEAEKYWPGRVLHVRAGLLSGMFDYTDRLPYWIQRVAKGGKVLVPGRKDRPVQIVDIKDVANWGLNMAENKNAGTFNVTGPNYDLTMEELLNTCKKVMNSDAEFVWVEESFMNEHNVQPWTEMPLWLPEIFSLEGETKPWKGGFTISIENAVKEGLTFRRIEETVTDVYEWMKSTDEWELKAGISGEREKELLERWYQ
protein production: failed

MSLLTEVETYVLSIIPSGPLKAEIAQKLEDVFAGKNTDLEALMEWLKTRPILSPLTKGILGFVFTLTVPSERGLQRRRFVQNALNGNGDPNNMDRAVKLYKKLKREITFHGAKEVALSYSTGALASCMGLIYNRMGTVTTEVAFGLVCATCEQIADSQHRSHRQMATITNPLIRHENRMVLASTTAKAMEQMAGSSEQAAEAMEVANQARQMVQAMRTIGTHPNSSAGLRDNLLENLQAYQKRMGVQMQRFK
protein production: not failed

MNMIRRLTALTLSLMLAGGPALAQTVVIVRHGEKVSPNGDPDLSDAGKARAQALAAALAGARVSTVLATPLKRTQQTAQPTADAAGLVIRTIALDGGVPAHAQRVAEVARQAPKDATVLIVGHSNTVGEIARALGDAAPSPVTDCDYDQMTIISLDAPTARTLHARYGAPTLPCPTN
protein production: failed

MKKRILFVSAIAIQCMMTSMALANDITSQQTAENIPFEKNQLSVRLNGEQYRSAFQIDLSDPNLILTIDTDLIPEEDIDALLPELNDSEEAQVSAFNEPKSLALRIEAKEKAANGDFVGALALLNEAEALTENPAKVLSMKGSVHYKLNQVELAIVSWKKALELDPSLTEVSDIIQWLEK
protein production: failed

RHQVESSPLFRALALRCNQTMVTLRSANMFHAYGFLAKVFEILAKHKISVDLITTSEISVSLTLDQTDTSGGAPQLPQAAREELEELCKVEVEHDLCLVALIGNKMSERKGYAKQVFGTLEDLNLRMICYGASPHNLCFLVNESVAKQAIQKLHTELFEQ
protein production: not failed

MNHSIPTLRTERLTLRPLAMADFPAYRDFMASPRSTGVGGPYDLPSTWGVFCHDLANWHFFGHGALMIDLGETGECIGQIGINHGPLFPEKELGWLLYEGHEGRGYAAEAAVALRDWAFETLNLPTLVSYVSPQNRKSAAVAERIGGTLDPLAPRSDPEDLVYRYHQVKTA
protein production: not failed

MRMKPLKRSLPLLLALLLAACAGVKPPAAQPAQPETKPAAESGPDEAKLPKVALSPEILYGVLAGEIAARRGAAGSAGLTYLDLARETRDPRMAQRAAEFCLLSGQLKPATEALQLWIELDPESLPAREQLFITLMRGGKLAESKPLIEELLRLEPQRAPAIFVQLARLSARQDGGSAPSYRLVQELADRYPDLPEARFAVLAAAADNNDQAAVDRELNRLAGIAPKWDLPVAWQVDRLRRKDINEAADFLQRELARRPDAGLELQIAYPRLLVGAKRFPEARSAFEALLKTHPDNPDLLYATGLLAYQMRDLKTADDRLQRALARQYPEQDFVRYTLGQIAEDDRDAERAGNWYRQVGPGQQYLPAQSRLAMLEAADGRLDEALSRLSGLGGTDQEKVSLALLQSQLAREAKQPRRAYDLLTQALQRQPRSSELLYERSLVSDMLGNAGNAERDLRLILKDKPGDAQALNALGYTLANRTSRYQEAYGYIEKALKAEPDNPVIQDSMGWVQYKLGRLDAARKALEKAYAAMQDPEVGAHLGEVLWKQGRRDEALAVWRKELAQHPGHEVIAETMRRLGAKP
protein production: failed

MKRIAFVGSVGAGKTTLFNALQGNYTLARKTLAVEFNDKGDIDTPGEYFSHPRWYHALITTLQDVDMLIYVHGANDPESRLPAGLLDIGVSKRQIAVISKTDMPDADVAATRKLLLETGFEEPIFELNSHDPQSVQQLVDYLASLTKQEEAGEKTHHSELEHHHHHH
protein production: not failed

AYSELQMLSPSERQCVETVVNMGYSYECVLRAMKKKGENIEQILDYLFAH
protein production: not failed

MNEEQRKSTSIDILAERDKKTKDYSKYFEHVYQPPSLKEARKRGKEEVNYNDDFQIDEKYRNMGQGKTFLIKTYGCQMNAHDTEVMAGILGALGYTPTEDINHADVILINTCAIRENAENKVFSEIGNLKHLKKEKPETVIGVCGCMSQEESVVNKILKSYQNVDMIFGTHNIHRLPEILEEAYLSKAMVVEVWSKEGDVIENLPKVREGNIKAWVNIMYGCDKFCTYCIVPFTRGKERSRRPEDIIDEVRDLARQGYKEITLLGQNVNAYGKDIDGLAYGLGDLLEDISKIDIPRVRFTTSHPWDFTDRMIEVIANGGNIVPHVHLPVQSGNNAVLKIMGRKYTRESYLDLVNRIKTHIPNVALTTDIIVGYPNETDEQFEETLTLYDEVEFEHAYTYIYSQRDGTPAAKMNDNVPLDVKKDRLQQLNKKVACYSERAMQQYEGQTVQVLCEGVSKKDDTVLSGYTSKNKLVNFKAPKSMIGKIVNVYIDEAKQFSLNGTFISVNDKTVVTQLEHHHHHH
protein production: not failed
